{
  "source": "patent US20110287979A1",
  "about": "(ONCOMED PHARMACEUTICALS, published 2011)",
  "binders": {"B1": {"name": "heterodimeric antibody molecule: single chain anti-DLL4 antibody sc21M18 associated with the Membrane-MAb(hIgG2)-GFP protein on the surface of HEK-293 cells (antibody)", "chain 1": "DIVMTQSPDSLAVSLGERATISCRASESVDNYGISFMKWFQQKPGQPPKLLIYAASNQGSGVPDRFSGSGSGTDFTLTISSLQAEDVAVYYCQQSKEVPWTFGGGTKVEIKRTVAAPSVFIFPPSDEQLKSGTASVVCLLNNFYPREAKVQWKVDNALQSGNSQESVTEQDSKDSTYSLSSTLTLSKADYEKHKVYACEVTHQGLSSPVTKSFNRGECGGGGGSGGGGSGGGGSGGGGSGGGGSGGGGSQVQLVQSGAEVKKPGASVKISCKASGYSFTAYYIHWVKQAPGQGLEWIGYISSYNGATNYNQKFKGRVTFTTDTSTSTAYMELRSLRSDDTAVYYCARDYDYDVGMDYWGQGTLVTVSSASTKGPSVFPLAPCSRSTSESTAALGCLVKDYFPEPVTVSWNSGALTSGVHTFPAVLQSSGLYSLSSVVTVPSSNFGTQTYTCNVDHKPSNTKVDKTVERKCCVECPPCPAPPVAGPSVFLFPPKPKDTLMISRTPEVTCVVVDVSHEDPEVQFNWYVDGVEVHNAKTKPREEQFNSTFRVVSVLTVVHQDWLNGKEYKCKVSNKGLPAPIEKTISKTKGQPREPQVYTLPPSREEMTKNQVSLTCLVKGFYPSDIAVEWESNGQPENNYKTTPPMLDSDGSFFLYSKLTVDKSRWQQGNVFSCSVMHEALHNHYTQKSLSLSPGK", "chain 2": "not shown", "notes": "also called anti-DLL4 antibody molecule"}},
  "target": "T1, hJag1-rFc (human; rabbit, UniProt P78504 34-1067; P01870 96-323, limits assumed)",
  "T1 construct": "also called hJag-rFc; control antigen",
  "T1 sequence (P78504 other isoform, or with tags, fused parts or gaps limits assumed)": "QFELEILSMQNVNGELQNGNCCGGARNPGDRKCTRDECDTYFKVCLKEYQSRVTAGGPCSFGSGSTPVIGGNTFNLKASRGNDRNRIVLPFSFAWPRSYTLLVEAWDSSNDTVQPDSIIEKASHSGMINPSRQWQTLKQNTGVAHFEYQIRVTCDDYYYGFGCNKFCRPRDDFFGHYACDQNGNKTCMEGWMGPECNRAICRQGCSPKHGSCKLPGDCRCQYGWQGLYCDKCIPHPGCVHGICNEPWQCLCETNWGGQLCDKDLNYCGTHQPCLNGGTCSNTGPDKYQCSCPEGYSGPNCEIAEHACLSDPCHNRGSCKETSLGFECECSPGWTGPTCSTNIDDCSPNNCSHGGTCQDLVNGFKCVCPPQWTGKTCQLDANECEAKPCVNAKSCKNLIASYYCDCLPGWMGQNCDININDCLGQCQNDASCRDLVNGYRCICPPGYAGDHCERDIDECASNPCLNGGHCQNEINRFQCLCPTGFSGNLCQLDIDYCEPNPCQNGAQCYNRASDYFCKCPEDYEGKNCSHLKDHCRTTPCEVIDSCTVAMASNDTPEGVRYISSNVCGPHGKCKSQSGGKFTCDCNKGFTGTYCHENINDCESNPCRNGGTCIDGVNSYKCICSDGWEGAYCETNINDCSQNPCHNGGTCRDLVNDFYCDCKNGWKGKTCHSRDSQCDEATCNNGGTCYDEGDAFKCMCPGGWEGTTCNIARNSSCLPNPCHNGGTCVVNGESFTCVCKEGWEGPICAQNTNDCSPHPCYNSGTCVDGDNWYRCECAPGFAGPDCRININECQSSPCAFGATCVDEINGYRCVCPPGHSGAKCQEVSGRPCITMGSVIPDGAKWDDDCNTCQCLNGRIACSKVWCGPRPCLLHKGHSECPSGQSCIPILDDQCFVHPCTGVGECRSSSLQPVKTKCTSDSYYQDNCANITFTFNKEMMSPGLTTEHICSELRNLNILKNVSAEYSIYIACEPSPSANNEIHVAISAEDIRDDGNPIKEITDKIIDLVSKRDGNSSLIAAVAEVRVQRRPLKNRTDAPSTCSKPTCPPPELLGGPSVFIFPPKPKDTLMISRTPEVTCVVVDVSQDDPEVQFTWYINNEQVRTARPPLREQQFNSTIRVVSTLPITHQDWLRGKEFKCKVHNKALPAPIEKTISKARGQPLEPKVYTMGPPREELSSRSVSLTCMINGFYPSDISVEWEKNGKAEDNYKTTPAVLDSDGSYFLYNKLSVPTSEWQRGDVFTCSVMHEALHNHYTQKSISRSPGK",
  "test": "FACS of transfected HEK-293 cells incubated with hJag-rFc and PE-labeled anti-rabbit Fc antibody",
  "description": "The effect of carrier plasmid on the transfection and display of an Ab-encoding plasmid was tested. The single chain anti-DLL4 antibody (sc21M18) described above was transfected with varying ratios of carrier plasmid. In this study, the carrier plasmid encoded an irrelevant […] antibody (sc18R5). The cells were also transfected with the Membrane-MAb(hIgG2)-GFP construct. The concentration of Ab library plasmid in the cells could be inferred from the level of surface expression of the anti-DLL4 antibody molecule. Approximately 5×10⁶ HEK-293 cells were transfected with plasmid DNA and harvested after 48 hours. The plasmid DNA was a mixture of sc21M18 and sc18R5, wherein the ratio of sc21M18 to sc18R5 varied from 1 to 10,000-fold excess of sc18R5 (1, 10, 100, 1000 or 10,000-fold excess). For detection of a functional anti-DLL4 antibody molecule on the cell surface, transfected cells were incubated with an hDLL4-rFc fusion protein. Bound hDLL4-rFc was detected with a PE-labeled anti-rabbit Fc antibody. The percentage of cells which expressed anti-DLL4 antibody was determined by FACS analysis. Cells were also incubated with a control antigen (hJag-rFc, -▪-) or only the PE-labeled anti-rabbit Fc antibody (-▴-).",
  "data": [
    {"binder": "B1", "values": [
      {"measurement": "binding result", "value": "no binding"}
    ]}
  ]
}
